First the molecules themselves.
T1: FcγRIIa H (FcgRIIa type H, His at position 131), extracellular domain with C-terminal His tag (human, UniProt P12318 34-217)
T1 construct: extracellular domain; also called 2aH; FcgRIIa H; not shown: His tag at the C terminus
T1 sequence (looked up): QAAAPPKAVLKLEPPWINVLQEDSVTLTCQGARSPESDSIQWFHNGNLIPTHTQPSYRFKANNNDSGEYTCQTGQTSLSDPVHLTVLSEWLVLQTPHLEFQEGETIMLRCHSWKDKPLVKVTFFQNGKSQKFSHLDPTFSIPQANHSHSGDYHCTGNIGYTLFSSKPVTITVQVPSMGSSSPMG

T2: FcγRIIb, extracellular domain with C-terminal His tag (human, UniProt P31994 43-217)
T2 construct: extracellular domain; also called 2b; FcgRIIb; not shown: His tag at the C terminus
T2 sequence (looked up): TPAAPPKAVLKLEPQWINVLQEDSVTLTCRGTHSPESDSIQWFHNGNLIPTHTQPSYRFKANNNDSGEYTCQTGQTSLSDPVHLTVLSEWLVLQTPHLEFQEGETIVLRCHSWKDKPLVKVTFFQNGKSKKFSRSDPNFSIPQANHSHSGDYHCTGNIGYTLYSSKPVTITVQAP

T3: FcγRIIa H (human, UniProt P12318 34-217)
T3 construct: extracellular domain; also called FcγRIIa type H; 2aH; not shown: His tag at the C terminus
T3 sequence (looked up): T1 sequence (looked up)

T4: FcγRIIb (human, UniProt P31994 43-217)
T4 construct: extracellular domain; also called 2b; not shown: His tag at the C terminus
T4 sequence (looked up): T2 sequence (looked up)

B1: GpH7-A5/GpH7-B3 variant N325_06M/GpL16-k0 (antibody, human IgG1, kappa)
heavy 1: not shown
heavy 2: not shown
light: DIVMTQSPLSLPVTPGEPASISCQASESLVHSNRNTYLHWYLQKPGQSPQLLIYKVSNRFSGVPDRFSGSGSGTDFTLKISRVEAEDVGVYYCSQNTHVPPTFGQGTKVEIERTVAAPSVFIFPPSDEQLKSGTASVVCLLNNFYPREAKVQWKVDNALQSGNSQESVTEQDSKDSTYSLSSTLTLSKADYEKHKVYACEVTHQGLSSPVTKSFNRGEC
notes: He Ab; alteration in one H chain only; also called He Ab
B2: GpH7-A5/GpH7-B3 variant P331_06M/GpL16-k0 (antibody, human IgG1, kappa)
heavy 1: not shown
heavy 2: not shown
light: B1 light
notes: as for B1
B3: GpH7-A5/GpH7-B3 variant P331_07I/GpL16-k0 (antibody, human IgG1, kappa)
heavy 1: not shown
heavy 2: not shown
light: B1 light
notes: as for B1
B4: GpH7-A5/GpH7-B3 variant S337_15Y/GpL16-k0 (antibody, human IgG1, kappa)
heavy 1: not shown
heavy 2: not shown
light: B1 light
notes: as for B1
B5: GpH7-A5/GpH7-B3 variant N325_03V/GpL16-k0 (antibody, human IgG1, kappa)
heavy 1: not shown
heavy 2: not shown
light: B1 light
notes: as for B1
B6: GpH7-A5/GpH7-B3 variant N325_08L/GpL16-k0 (antibody, human IgG1, kappa)
heavy 1: not shown
heavy 2: not shown
light: B1 light
notes: as for B1
B7: GpH7-A5/GpH7-B3 variant P331_10E/GpL16-k0 (antibody, human IgG1, kappa)
heavy 1: not shown
heavy 2: not shown
light: B1 light
notes: as for B1
B8: GpH7-A5/GpH7-B3 variant N325_20W/GpL16-k0 (antibody, human IgG1, kappa)
heavy 1: not shown
heavy 2: not shown
light: B1 light
notes: as for B1
B9: GpH7-A5/GpH7-B3 variant P331_20W/GpL16-k0 (antibody, human IgG1, kappa)
heavy 1: not shown
heavy 2: not shown
light: B1 light
notes: as for B1
B10: GpH7-A5/GpH7-B3 variant S337_18N/GpL16-k0 (antibody, human IgG1, kappa)
heavy 1: not shown
heavy 2: not shown
light: B1 light
notes: as for B1
B11: GpH7-A5/GpH7-B3 variant P331_04F/GpL16-k0 (antibody, human IgG1, kappa)
heavy 1: not shown
heavy 2: not shown
light: B1 light
notes: as for B1
B12: GpH7-A5/GpH7-B3 variant N325_09D/GpL16-k0 (antibody, human IgG1, kappa)
heavy 1: not shown
heavy 2: not shown
light: B1 light
notes: as for B1
B13: GpH7-A5/GpH7-B3 variant N325_04F/GpL16-k0 (antibody, human IgG1, kappa)
heavy 1: not shown
heavy 2: not shown
light: B1 light
notes: as for B1
B14: GpH7-A5/GpH7-B3 variant P331_03V/GpL16-k0 (antibody, human IgG1, kappa)
heavy 1: not shown
heavy 2: not shown
light: B1 light
notes: as for B1
B15: GpH7-A5/GpH7-B3 variant N325_07I/GpL16-k0 (antibody, human IgG1, kappa)
heavy 1: not shown
heavy 2: not shown
light: B1 light
notes: as for B1
B16: GpH7-A5/GpH7-B3 variant P331_15Y/GpL16-k0 (antibody, human IgG1, kappa)
heavy 1: not shown
heavy 2: not shown
light: B1 light
notes: as for B1
B17: GpH7-A5/GpH7-B3 variant P331_16H/GpL16-k0 (antibody, human IgG1, kappa)
heavy 1: not shown
heavy 2: not shown
light: B1 light
notes: as for B1
B18: GpH7-A5/GpH7-B3 variant N325_13S/GpL16-k0 (antibody, human IgG1, kappa)
heavy 1: not shown
heavy 2: not shown
light: B1 light
notes: as for B1
B19: GpH7-A5/GpH7-B3 variant N325_01G/GpL16-k0 (antibody, human IgG1, kappa)
heavy 1: not shown
heavy 2: not shown
light: B1 light
notes: as for B1
B20: GpH7-A5/GpH7-B3 variant A330_11K/GpL16-k0 (antibody, human IgG1, kappa)
heavy 1: not shown
heavy 2: not shown
light: B1 light
notes: Heterodimerized IgG1; mutation in the GpH7-B3 chain only; also called He Ab
B21: GpH7-A5/GpH7-B3 variant E333_08L/GpL16-k0 (antibody, human IgG1, kappa)
heavy 1: not shown
heavy 2: not shown
light: B1 light
notes: as for B20
B22: GpH7-A5/GpH7-B3 variant A330_12R/GpL16-k0 (antibody, human IgG1, kappa)
heavy 1: not shown
heavy 2: not shown
light: B1 light
notes: as for B20
B23: GpH7-A5/GpH7-B3 variant E333_13S/GpL16-k0 (antibody, human IgG1, kappa)
heavy 1: not shown
heavy 2: not shown
light: B1 light
notes: as for B20
B24: GpH7-A5/GpH7-B3 variant I332_13S/GpL16-k0 (antibody, human IgG1, kappa)
heavy 1: not shown
heavy 2: not shown
light: B1 light
notes: as for B20
B25: GpH7-A5/GpH7-B3 variant H268_04F/GpL16-k0 (antibody, human IgG1, kappa)
heavy 1: not shown
heavy 2: not shown
light: B1 light
notes: as for B20
B26: GpH7-A5/GpH7-B3 variant A330_19Q/GpL16-k0 (antibody, human IgG1, kappa)
heavy 1: not shown
heavy 2: not shown
light: B1 light
notes: as for B20
B27: GpH7-A5/GpH7-B3 variant G236_20W/GpL16-k0 (antibody, human IgG1, kappa)
heavy 1: not shown
heavy 2: not shown
light: B1 light
notes: as for B20
B28: GpH7-A5/GpH7-B3 variant E333_09D/GpL16-k0 (antibody, human IgG1, kappa)
heavy 1: not shown
heavy 2: not shown
light: B1 light
notes: as for B20
B29: GpH7-A5/GpH7-B3 variant D270_10E/GpL16-k0 (antibody, human IgG1, kappa)
heavy 1: not shown
heavy 2: not shown
light: B1 light
notes: as for B20
B30: GpH7-A5/GpH7-B3 variant I332_03V/GpL16-k0 (antibody, human IgG1, kappa)
heavy 1: not shown
heavy 2: not shown
light: B1 light
notes: as for B20
B31: GpH7-A5/GpH7-B3 variant E333_14T/GpL16-k0 (antibody, human IgG1, kappa)
heavy 1: not shown
heavy 2: not shown
light: B1 light
notes: as for B20
B32: GpH7-A5/GpH7-B3 variant A330_16H/GpL16-k0 (antibody, human IgG1, kappa)
heavy 1: not shown
heavy 2: not shown
light: B1 light
notes: as for B20
B33: GpH7-A5/GpH7-B3 variant E333_04F/GpL16-k0 (antibody, human IgG1, kappa)
heavy 1: not shown
heavy 2: not shown
light: B1 light
notes: as for B20

33 molecules from patent US20150344570A1 (published 2015) can be followed below.

One assay concerns the target T1, FcγRIIa H (FcgRIIa type H, His at …). The assay is described as follows: SPR (Biacore), relative binding, GpH7-A5/GpH7-B3/GpL16-k0 = 100. Background: Surface plasmon resonance follows binding to a sensor surface in real time, without labels.
On to B1, for which the He/Con_2aH was 48.2 % of control.
Same read-out and setting: the same measure for B2: 85.1 % of control; for B3: 77.4 % of control; for B4: 99.4 % of control.
The same measure, in the same setting: next, B5: 45.2 % of control; B6: 52 % of control; B7: 87.1 % of control.
Take B8: the He/Con_2aH is 47.2 % of control.
Consider B9, for which the He/Con_2aH is 82.8 % of control.
B10: the He/Con_2aH is 99.8 % of control.
On to B11, for which the He/Con_2aH was 84.7 % of control.
Still for that read-out and setting: next, B12: 53.1 % of control.
Still for that read-out and setting: the same measure for B13: 33.4 % of control; for B14: 82.5 % of control; for B15: 38.1 % of control.
On the same count and under the same terms, next, B16: 86 % of control; B17: 84.5 % of control.
As for B18, the He/Con_2aH was 79.7 % of control.
Same read-out and setting: next, B19: 56.8 % of control.

Another assay has as its target T2, FcγRIIb, extracellular domain with …. Described as above.
As for B1, the He/Con_2b is 217 % of control.
As for B2, the He/Con_2b was 102 % of control.
Still for that read-out and setting: the same measure for B3: 114 % of control; for B4: 100 % of control.
As for B5, the He/Con_2b was 111 % of control.
On the same count and under the same terms, next, B6: 197 % of control; B7: 116 % of control; B8: 169 % of control.
Still for that read-out and setting: next, B9: 111 % of control; B10: 103 % of control.
The same measure, in the same setting: the same measure for B11: 110 % of control.
In the case of B12, the He/Con_2b is 124 % of control.
On to B13, for which the He/Con_2b is 143 % of control.
Same read-out and setting: the same measure for B14: 119 % of control; for B15: 171 % of control.
On the same count and under the same terms, the same measure for B16: 114 % of control; for B17: 116 % of control; for B18: 177 % of control.
On the same count and under the same terms, next, B19: 101 % of control.

Another assay deals with T3, FcγRIIa H. The assay is described as follows: SPR (Biacore), antibody captured, FcγR as analyte; binding relative to GpH7-A5/GpH7-B3/GpL16-k0 = 100. As to the method:
(§1) The heterodimerized antibodies He Abs in which one of the H chains was introduced with an alteration were assayed for their binding activities to each activating FcγR and inhibitory FcγR according to the method described in Example 4. […] The activating FcγRs in FIGS. 26, 27, 28, and 29 are FcγRIa, FcγRIIa (R), FcγRIIa (H), and FcγRIIIa, respectively.
(§2) Analysis of interaction between objective antibody and the FcγR was carried out using Biacore T100 (GE Healthcare). HBS-EP+ (GE Healthcare) was used as the running buffer, and the measurement temperature was set to 25° C. Chips produced by immobilizing the antigen peptide by the amine coupling method to a Series S Sencor Chip CM5 (GE Healthcare), or alternatively, chips produced by allowing preliminarily biotinylated antigen peptides to interact with and immobilize onto a Series S Sensor Chip SA (certified) (GE Healthcare) were used. Antibodies of interest were captured onto an antigen peptide-immobilized chip, and allowed to interact to each FcγR diluted with running buffer. To regenerate and repeatedly use the chip, the antibodies captured on the chip were washed off by reacting 10 mM glycine-HCl, pH 1.5.
As for B20, the He/Con_2aH is 109 % of control.
Same read-out and setting: the same measure for B21: 102 % of control; for B22: 108 % of control; for B23: 101 % of control.
Still for that read-out and setting: the same measure for B24: 110 % of control; for B25: 111 % of control; for B26: 102 % of control.
In the case of B27, the He/Con_2aH was 147 % of control.
Same read-out and setting: next, B28: 103 % of control.
The same measure, in the same setting: the same measure for B29: 102 % of control.
On the same count and under the same terms, next, B30: 105 % of control.
Regarding B31, the He/Con_2aH was 100 % of control.
Same read-out and setting: the same measure for B32: 101 % of control; for B33: 102 % of control.

A further assay addresses T4, FcγRIIb. Described as above. As for the experimental part:
as §1, §2
On to B20, for which the He/Con_2b was 95 % of control.
The same measure, in the same setting: the same measure for B21: 95 % of control.
Turning to B22, the He/Con_2b was 84.8 % of control.
The same measure, in the same setting: the same measure for B23: 81.8 % of control; for B24: 98.4 % of control; for B25: 89.6 % of control.
On the same count and under the same terms, next, B26: 90.8 % of control; B27: 58.2 % of control; B28: 94.3 % of control.
Same read-out and setting: the same measure for B29: 76.5 % of control; for B30: 80.7 % of control; for B31: 86.1 % of control.
Consider B32, for which the He/Con_2b was 87.6 % of control.
The same measure, in the same setting: the same measure for B33: 94.6 % of control.
